Earlier results in article PMC3925188.
Values joined by “and” are separate entries in the source; they are usually repeats but may differ in a detail not shown here. Equal values may be shown once.

Target: Histone H3K4me3 H3K4me3 (Homo sapiens) (UniProt P68431)

Chain of KMT2A PHD3 (Q03164 1566-1627): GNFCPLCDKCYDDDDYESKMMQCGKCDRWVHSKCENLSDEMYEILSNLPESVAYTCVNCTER

**Q.** For KMT2A PHD3 (from UniProt Q03164), which Kd is on record?
**A.** 30 µM and 19 µM and 4 µM
